Patent publication US20180244785A1 (MERRIMACK PHARMACEUTICALS, published 2018)

T1: 6His-Fc-FGFR4 (human, UniProt P22455 144-369)
T1 construct: not shown: 6His tag and Fc as named in '6His-Fc-FGFR'
T1 sequence: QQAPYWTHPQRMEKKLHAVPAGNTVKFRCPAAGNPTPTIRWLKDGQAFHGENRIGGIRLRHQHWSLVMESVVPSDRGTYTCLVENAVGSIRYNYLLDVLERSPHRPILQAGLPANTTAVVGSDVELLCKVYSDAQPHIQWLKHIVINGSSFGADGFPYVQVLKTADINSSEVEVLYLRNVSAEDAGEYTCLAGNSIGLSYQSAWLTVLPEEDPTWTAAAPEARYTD

T2: 6His-Fc-FGFR1c (human, UniProt P11362 141-376)
T2 construct: not shown: 6His tag and Fc as named in '6His-Fc-FGFR'
T2 sequence: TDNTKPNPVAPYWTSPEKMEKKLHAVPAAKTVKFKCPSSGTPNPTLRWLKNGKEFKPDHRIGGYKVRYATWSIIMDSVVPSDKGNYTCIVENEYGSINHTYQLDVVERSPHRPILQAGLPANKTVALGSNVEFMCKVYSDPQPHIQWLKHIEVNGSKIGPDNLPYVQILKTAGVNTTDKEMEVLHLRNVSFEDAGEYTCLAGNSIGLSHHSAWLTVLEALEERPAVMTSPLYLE

T3: soluble FGFR4 receptor protein (human, UniProt P22455 144-369)
T3 sequence: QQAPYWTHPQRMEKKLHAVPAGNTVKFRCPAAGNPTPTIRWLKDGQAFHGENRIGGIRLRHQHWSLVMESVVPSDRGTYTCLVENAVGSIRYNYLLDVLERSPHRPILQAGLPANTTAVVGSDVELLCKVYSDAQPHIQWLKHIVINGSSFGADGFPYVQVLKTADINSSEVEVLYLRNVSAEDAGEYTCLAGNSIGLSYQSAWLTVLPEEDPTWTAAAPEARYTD

T4: soluble FGFR1c receptor protein (human, UniProt P11362 141-376)
T4 sequence: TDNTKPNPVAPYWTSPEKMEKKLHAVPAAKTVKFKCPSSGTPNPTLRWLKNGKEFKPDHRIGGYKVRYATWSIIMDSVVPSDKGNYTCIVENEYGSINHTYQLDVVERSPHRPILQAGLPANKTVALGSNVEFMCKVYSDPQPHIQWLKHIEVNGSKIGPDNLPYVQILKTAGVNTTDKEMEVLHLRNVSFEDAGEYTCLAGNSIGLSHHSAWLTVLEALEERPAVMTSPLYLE

T5: soluble FGFR3c receptor protein (human, UniProt P22607 141-372)
T5 sequence: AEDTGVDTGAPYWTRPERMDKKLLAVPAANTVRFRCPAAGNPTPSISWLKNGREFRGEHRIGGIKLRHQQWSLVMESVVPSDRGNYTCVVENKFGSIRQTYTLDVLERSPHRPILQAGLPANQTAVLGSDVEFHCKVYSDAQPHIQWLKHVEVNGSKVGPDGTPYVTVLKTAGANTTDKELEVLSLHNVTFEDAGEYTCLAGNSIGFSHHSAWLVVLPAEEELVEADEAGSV


Key:
6His-Fc-FGFR4 = target: T1, 6His-Fc-FGFR4; assay: competition ELISA, blocks 6His-Fc-FGFR4 binding to coated FGF2
Description: (§1) ELISA plates were coated with 50 ug/ml Heparin Sulfate (HSPG) (Sigma Aldrich) and incubated overnight at room temperature. Plates were then washed extensively with PBS containing 0.05% v/v Tween20 (PBST). Plates were then blocked with 2.5% BSA in PBST for one hour and washed extensively as before. 40-60 μL of FGF1 or FGF2 was then added to each well at 40 μg/ml and allowed to bind at room temperature for 2 hours. Plates were then washed extensively with PBST as before. Stock solutions of each 6His-Fc-FGFR (FGFR1-4) were prepared at 500 ng/ml in 2% v/v BSA-PBST and each antibody was prepared as a 2×-dilution series in 2% v/v BSA-PBST. Antibodies dilution series and 6His-Fc-FGFR1-4 were diluted in a 1:1 fashion and immediately added to the relative wells of the plate and allowed to bind for 2 hours at room temperature. Plates were washed extensively as before with PBST and the remaining fraction of bound 6His-Fc-FGFR was detected using a polyclonal-anti-His-6-HRP conjugated antibody (Abcam) for one hour at room temperature. After extensive washing with PBST, 50 μl of Pierce Chemiluminescent substrate (Thermo Fisher Scientific, Rockford, USA) was added and plates were measured on an Envision plate reader (Perkin Elmer). Raw data was background corrected and plotted using Prism software. […]

6His-Fc-FGFR1c = target: T2, 6His-Fc-FGFR1c; assay: competition ELISA, blocks 6His-Fc-FGFR1c binding to coated FGF2
Description: as §1

[1] = target: soluble FGFR2c receptor protein (human, UniProt P21802 148-377); assay: BLI Octet RED96, antibody on anti-hIgG Fc tip
Sequence of soluble FGFR2c receptor protein (P21802 148-377): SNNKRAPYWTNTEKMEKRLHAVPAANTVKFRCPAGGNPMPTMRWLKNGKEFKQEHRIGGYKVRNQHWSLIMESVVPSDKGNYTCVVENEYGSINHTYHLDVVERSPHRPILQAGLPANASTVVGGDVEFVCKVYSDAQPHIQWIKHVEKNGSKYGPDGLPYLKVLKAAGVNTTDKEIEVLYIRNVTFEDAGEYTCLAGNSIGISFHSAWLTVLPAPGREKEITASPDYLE
Description: (§2) Briefly, the Pall ForteBio Octet RED96 Bio-Layer Interferometry system was used to determine the specificity of anti-FGFR antibodies for FGFR1c, FGFR2c, FGFR3c, and FGFR4. The antibodies and soluble receptor proteins were prepared in PBS at a concentration of 300 nM. First, the candidate antibodies were immobilized on the surface of anti-human IgG Fc biosensor tips for 120 seconds. After immobilization, the biosensors were dipped in PBS solution for 60 seconds (baseline step) to assess assay drift, and determine loading level of antibodies. The baseline step was followed by an association step of 300 seconds wherein the binding interaction between the immobilized antibodies and soluble receptors was measured. Following the association step, the biosensors were dipped into PBS buffer for 600 seconds to measure the dissociation of the bound receptor proteins from the immobilized antibodies. Each binding response was measured and reported real time on a sensorgram trace. For data analysis, a simple 1:1 binding model was used which measures the rate of complex formation of one immobilized antibody and one soluble receptor protein.

[2] = target: T3, soluble FGFR4 receptor protein; assay: BLI Octet RED96, antibody on anti-hIgG Fc tip
Description: as §2

[3] = target: T4, soluble FGFR1c receptor protein; assay: BLI Octet RED96, antibody on anti-hIgG Fc tip
Description: as §2

[4] = target: T5, soluble FGFR3c receptor protein; assay: BLI Octet RED96, antibody on anti-hIgG Fc tip
Description: as §2

Binder	IC50 (6His-Fc-FGFR4)	IC50 (6His-Fc-FGFR1c)	also measured
Ab59 (antibody, human IgG2, kappa, V domains shown, format in the assays not spelled out) VH: EVQLLESGGGVVQPGRSLRLSCAASGFTFSSYAMHWVRQAPGKGLEWVAVISYDGSNKYYADSVKGRFTISRDNSKNTLSLQMNSLRVEDTAIYYCVRGAGRGYPYGPDGFDIWGQGTMVTVSS VL: DIVMTQTPLSLSVTPGQPASISCTSSRSLLHSDGKTYVYWYVQKSGQPPQLLIYELSNRFSGVPDRFSGSGSRTDFTLKISRVEAEDVGVYYCMQYIEAPLTFGGGTKVEIKR	~6.86 nM	2.22 nM	
Ab56 (antibody, human IgG2, kappa, V domains shown, format in the assays not spelled out) VH: EVQLLESGGGVVQPGRSLRLSCAASGFTFSSYAMHWVRQAPGKGLEWVAVISYDGSNKYYADSVKGRFTISRDNSKNTLSLQMNSLRVEDTAIYYCVRGAGMGLTYGPDGFDIWGQGTMVTVSS VL: DIVMTQTPLSLSVTPGQPASISCTSSRSLLHSDGKTYVYWYVQKSGQPPQLLIYELSNRFSGVPDRFSGSGSRTDFTLKISRVEAEDVGVYYCMQYIEAPLTFGGGTKVEIKR	13.6 nM	3.03 nM	
Ab70 (antibody, human IgG2, kappa, V domains shown, format in the assays not spelled out) VH: EVQLLESGGGVVQPGRSLRLSCAASGFTFSSYAMHWVRQAPGKGLEWVAVISYDGSNKYYADSVKGRFTISRDNSKNTLSLQMNSLRVEDTAIYYCVRGAGQGYPYGPDGFDIWGQGTMVTVSS VL: DIVMTQTPLSLSVTPGQPASISCKSSRSLLHSDGKTYVYWYVQKSGQPPQLLIYELSNRFSGVPDRFSGSGSRTDFTLKISRVEAEDVGVYYCMQYIEAPLTFGGGTKVEIKR	19.8 nM	4.59 nM	
Vk10 combined with the VH of Ab15 (antibody, V domains shown, captured on anti-human IgG Fc tips) VH: EVQLLESGGGVVQPGRSLRLSCAASGFTFSSYAMHWVRQAPGKGLEWVAVISYDGSNKYYADSVKGRFTISRDNSKNTLSLQMNSLRVEDTAIYYCVRGAGRGYTYGPDGFDIWGQGTMVTVSS VL: DIVMTQSPDSLAVSLGERATISCTSSRSLLHSDGKTYVYWYQQKPGQPPKLLIYELSNRFSGVPDRFSGSGSRTDFTLTISSLQAEDVAVYYCMQYIEAPLTFGGGTKVEIK			Kd [1]: 6.49 nM; koff [1]: 0.00142 s⁻¹; kon [1]: 220000 M⁻¹ s⁻¹; Kd [2]: 4.43 nM; koff [2]: 0.000585 s⁻¹; kon [2]: 132000 M⁻¹ s⁻¹; Kd [3]: 5.33 nM; koff [3]: 0.000294 s⁻¹; kon [3]: 55200 M⁻¹ s⁻¹; Kd [4]: 5.23 nM; koff [4]: 0.000701 s⁻¹; kon [4]: 134000 M⁻¹ s⁻¹
Ab63 (antibody, human IgG2, kappa, V domains shown, format in the assays not spelled out) VH: EVQLLESGGGVVQPGRSLRLSCAASGFTFSSYAMHWVRQAPGKGLEWVAVISYDGSNKYYADSVKGRFTISRDNSKNTLSLQMNSLRVEDTAIYYCVRGAGRGYPHGPDGFDIWGQGTMVTVSS VL: DIVMTQTPLSLSVTPGQPASISCTSSRSLLHSDGKTYVYWYVQKSGQPPQLLIYELSNRFSGVPDRFSGSGSRTDFTLKISRVEAEDVGVYYCMQYIEAPLTFGGGTKVEIKR	17.4 nM	12.2 nM	
Ab67 (antibody, human IgG2, kappa, V domains shown, format in the assays not spelled out) VH: EVQLLESGGGVVQPGRSLRLSCAASGFTFSSYAMHWVRQAPGKGLEWVAVISYDGSNKYYADSVKGRFTISRDNSKNTLSLQMNSLRVEDTAIYYCVRGAGRGFPYGPDGFDIWGQGTMVTVSS VL: DIVMTQTPLSLSVTPGQPASISCTSSRSLLHSDGKTYVYWYVQKSGQPPQLLIYELSNRFSGVPDRFSGSGSRTDFTLKISRVEAEDVGVYYCMQYIEAPLTFGGGTKVEIKR	12.8 nM	5.36 nM	
Ab68 (antibody, human IgG2, kappa, V domains shown, format in the assays not spelled out) VH: EVQLLESGGGVVQPGRSLRLSCAASGFTFSSYAMHWVRQAPGKGLEWVAVISYDGSNKYYADSVKGRFTISRDNSKNTLSLQMNSLRVEDTAIYYCVRGAGLGYPNGPDGFDIWGQGTMVTVSS VL: DIVMTQTPLSLSVTPGQPASISCTSSRSLLHSDGKTYVYWYVQKSGQPPQLLIYELSNRFSGVPDRFSGSGSRTDFTLKISRVEAEDVGVYYCMQYIEAPLTFGGGTKVEIKR	5.67 nM	2.96 nM	
Ab49 (antibody, human IgG2, kappa, V domains shown, format in the assays not spelled out) VH: EVQLLESGGGVVQPGRSLRLSCAASGFTFSSYAMHWVRQAPGKGLEWVAVISYDGSNKYYADSVKGRFTISRDNSKNTLSLQMNSLRVEDTAIYYCVRGAGRGYPYGPDGFDIWGQGTMVTVSS VL: DIVMTQTPLSLSVTPGQPASISCRSSRSLLHSDGKTYVYWYVQKSGQPPQLLIYELSNRFSGVPDRFSGSGSRTDFTLKISRVEAEDVGVYYCMQYIEAPLTFGGGTKVEIKR	18.4 nM	4.67 nM	
Ab51 (antibody, human IgG2, kappa, V domains shown, format in the assays not spelled out) VH: EVQLLESGGGVVQPGRSLRLSCAASGFTFSSYAMHWVRQAPGKGLEWVAVISYDGSNKYYADSVKGRFTISRDNSKNTLSLQMNSLRVEDTAIYYCVRGAGRGFPYGPDGFDIWGQGTMVTVSS VL: DIVMTQTPLSLSVTPGQPASISCRSSRSLLHSDGKTYVYWYVQKSGQPPQLLIYELSNRFSGVPDRFSGSGSRTDFTLKISRVEAEDVGVYYCMQYIEAPLTFGGGTKVEIKR	21.1 nM	3.86 nM	
Ab57 (antibody, human IgG2, kappa, V domains shown, format in the assays not spelled out) VH: EVQLLESGGGVVQPGRSLRLSCAASGFTFSSYAMHWVRQAPGKGLEWVAVISYDGSNKYYADSVKGRFTISRDNSKNTLSLQMNSLRVEDTAIYYCVRGAGLGFPYGPDGFDIWGQGTMVTVSS VL: DIVMTQTPLSLSVTPGQPASISCTSSRSLLHSDGKTYVYWYVQKSGQPPQLLIYELSNRFSGVPDRFSGSGSRTDFTLKISRVEAEDVGVYYCMQYIEAPLTFGGGTKVEIKR	8.41 nM	2.8 nM	
Ab40 (antibody, human IgG2, kappa, V domains shown, format in the assays not spelled out) VH: EVQLLESGGGVVQPGRSLRLSCAASGFTFSSYAMHWVRQAPGKGLEWVAVISYDGSNKYYADSVKGRFTISRDNSKNTLSLQMNSLRVEDTAIYYCVRGAGMGLTYGPDGFDIWGQGTMVTVSS VL: DIVMTQTPLSLSVTPGQPASISCRSSRSLLHSDGKTYVYWYVQKSGQPPQLLIYELSNRFSGVPDRFSGSGSRTDFTLKISRVEAEDVGVYYCMQYIEAPLTFGGGTKVEIKR	17.5 nM	4.85 nM	
Ab41 (antibody, human IgG2, kappa, V domains shown, format in the assays not spelled out) VH: EVQLLESGGGVVQPGRSLRLSCAASGFTFSSYAMHWVRQAPGKGLEWVAVISYDGSNKYYADSVKGRFTISRDNSKNTLSLQMNSLRVEDTAIYYCVRGAGLGFPYGPDGFDIWGQGTMVTVSS VL: DIVMTQTPLSLSVTPGQPASISCRSSRSLLHSDGKTYVYWYVQKSGQPPQLLIYELSNRFSGVPDRFSGSGSRTDFTLKISRVEAEDVGVYYCMQYIEAPLTFGGGTKVEIKR	9.87 nM	3.53 nM	
Ab43 (antibody, human IgG2, kappa, V domains shown, format in the assays not spelled out) VH: EVQLLESGGGVVQPGRSLRLSCAASGFTFSSYAMHWVRQAPGKGLEWVAVISYDGSNKYYADSVKGRFTISRDNSKNTLSLQMNSLRVEDTAIYYCVRGAGRGYPYGPDGFDIWGQGTMVTVSS VL: DIVMTQTPLSLSVTPGQPASISCRSSRSLLHSDGKTYVYWYVQKSGQPPQLLIYELSNRFSGVPDRFSGSGSRTDFTLKISRVEAEDVGVYYCMQYIEAPLTFGGGTKVEIKR	10 nM	6.62 nM	
